Results: the supplement of paper PMC10567573

B1: CDC14A (parent)
chain: GPHPKSKIENGYPLHAPEAYFPYF
B2: PPFIA4 (parent)
chain: PGVHRRYSALREESAKDWETSPLP

Variants of: B1
Test: protein stability index of a GFP-peptide fusion (GPS, HEK-293T) (PSI 1-6); higher = more stable
Settings: c terminus: a fixed tail appended
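Note: lentivirally expressed fusions sorted by FACS into six bins by GFP to DsRed ratio, PSI derived from sequencing read proportions per bin multiplied by bin number.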

Protein stability index: each site, then its substitutions
G1: C 2.1 | H 2.08 | I 1.85 | F 2.01 | E 2.44 | D 2.51 | A 1.82

Variants of: B2
Test: as above
Settings: c terminus: a fixed tail appended

Protein stability index of substitutions, site by site:
W18: F 4.4 | A 4.95 | V 4.67 | R 4.42 | P 5.21 | C 5.36 | D 5.58 | H 5.23 | L 4.96 | N 5.29 | Y 4.73 | M 5.08 | E 5.15 | I 4.81 | K 4.7 | Q 4.77 | T 5.24 | G 5.21
A15: S 3.76 | M 2.77 | P 4.12 | Y 3.32 | R 4 | W 3.86 | T 4.63 | V 3.89 | N 3.92 | Q 3.63
L23: A 4.67 | I 4.26 | M 4.79 | K 5.38 | S 4.56 | V 2.13 | N 5 | E 3.3 | Y 3.87 | Q 4.37 | D 4.55 | H 4.53 | F 4.27 | R 4.25
S21: L 3.6 | Y 3.2 | G 3.25 | C 3.88 | A 4.93 | W 4.24 | M 3.67 | E 4.5 | D 5.1 | I 3.39 | R 4.03 | F 3.34 | P 4.08 | H 3.42 | T 4.07 | N 5.33 | Q 4.24 | V 3.76 | K 3.98
D17: V 3.86 | C 3.53 | K 3.36 | S 4.16 | T 3.31 | P 3.04 | A 3.29 | L 2.89 | G 3.9 | R 3.34 | N 3.98 | W 1.97 | I 3.33 | Q 3.39 | Y 2.72
P22: V 3.68 | D 4.63 | F 3.19 | L 3.67 | C 4.02 | T 3.04 | H 4.28 | Y 3.3 | Q 4.63 | N 4.52 | R 3.18 | A 4.11 | S 4.31 | E 4.94 | K 4.23 | I 3.48
E19: Q 4.18 | H 3.41 | R 3.55 | K 3.68 | N 3.42 | S 3.17 | M 2.93 | V 3.24 | A 2.97 | F 2.4 | I 3.41 | Y 2.37 | L 3.97 | D 4.03 | W 2.41 | P 3.59 | C 3 | T 3.96
K16: D 4.45 | C 4.02 | V 4.2 | L 4.05 | P 3.89 | T 4.5 | N 4.66 | H 4.17 | S 4.13 | E 4.51 | M 4.24 | I 3.96 | A 3.7 | F 3.17 | Q 3.67 | R 3.99
T20: V 2.73 | F 2.71 | L 3.36 | R 3.66 | D 5.09 | A 4.05 | C 3.75 | W 2.3 | S 4.83 | E 4.62 | Y 3.46 | K 4.17 | Q 4.49 | N 4.55 | G 4.55 | H 4.47 | M 4.37 | P 4.6
P24: L 3.62 | S 3.83 | K 4.6 | F 3.59 | H 3.19 | V 4.15 | Q 3.45 | Y 3.45 | G 4.25 | N 4.43 | C 4.22 | I 3.87 | E 4.71 | M 3.97 | T 4.04 | D 4.59
